Tests used:
purified protein [1] = substrate: NC(=O)c1ccc[n+]([C@@H]2O[C@H](COP(=O)(O)OP(=O)(O)OC[C@H]3O[C@@H](n4cnc5c(N)ncnc54)[C@H](O)[C@@H]3O)[C@@H](O)[C@H]2O)c1; assay: purified protein; assay type: biochemical, Haloferax volcanii; details: 10 mM malate, MnCl2, […] KCl, pH 7.0, 42°C, varied: cofactor
purified protein [2] = substrate: NC(=O)c1ccc[n+]([C@@H]2O[C@H](COP(=O)(O)OP(=O)(O)OC[C@H]3O[C@@H](n4cnc5c(N)ncnc54)[C@H](OP(=O)(O)O)[C@@H]3O)[C@@H](O)[C@H]2O)c1; assay: purified protein; assay type: biochemical, Haloferax volcanii; details: 10 mM malate, MnCl2, […] KCl, pH 7.0, 42°C, varied: cofactor
[3] = substrate: CC(=O)C(=O)O; assay: discontinuous PEP formation assay; assay type: biochemical, Haloferax volcanii; details: ATP, MgCl2, DTE, 2 M KCl, pH 8.0, 42°C
[4] = substrate: Nc1ncnc2c1ncn2[C@@H]1O[C@H](COP(=O)(O)OP(=O)(O)OP(=O)(O)O)[C@@H](O)[C@H]1O; assay: discontinuous PEP formation assay; assay type: biochemical, Haloferax volcanii; details: pyruvate, MgCl2, DTE, 2 M KCl, pH 8.0, 42°C
purified protein [5] = substrate: CC(=O)O; assay: purified protein; details: acetate activation, ATP, CoA, MgCl2, 1 M KCl, pH 7.0, 42°C, pH 7.0
purified protein [6] = substrate: CC(=O)SCCNC(=O)CCNC(=O)[C@H](O)C(C)(C)COP(=O)(O)OP(=O)(O)OC[C@H]1O[C@@H](n2cnc3c(N)ncnc32)[C@H](O)[C@@H]1OP(=O)(O)O; assay: purified protein; assay type: biochemical, Haloferax volcanii; details: acetate formation (reverse), AMP, PPi, MgCl2, 1 M KCl, pH 7.0, 42°C
purified protein [7] = substrate: Nc1ncnc2c1ncn2[C@@H]1O[C@H](COP(=O)(O)OP(=O)(O)OP(=O)(O)O)[C@@H](O)[C@H]1O; assay: purified protein; assay type: biochemical, Haloferax volcanii; details: acetate activation, ATP, CoA, MgCl2, 1 M KCl, pH 7.0, 42°C
purified protein [8] = substrate: CC(C)(COP(=O)(O)OP(=O)(O)OC[C@H]1O[C@@H](n2cnc3c(N)ncnc32)[C@H](O)[C@@H]1OP(=O)(O)O)[C@@H](O)C(=O)NCCC(=O)NCCS; assay: purified protein; assay type: biochemical, Haloferax volcanii; details: acetate activation, ATP, CoA, MgCl2, 1 M KCl, pH 7.0, 42°C
purified protein [9] = substrate: Nc1ncnc2c1ncn2[C@@H]1O[C@H](COP(=O)(O)O)[C@@H](O)[C@H]1O; assay: purified protein; assay type: biochemical, Haloferax volcanii; details: acetate formation (reverse), acetyl-CoA, PPi, MgCl2, 1 M KCl, pH 7.0, 42°C

B1: Mae2 (Haloferax volcanii DS2) (protein)
chain: MTLGDDARDYHRRPPAGKVEIATTKPTNTQRDLSLAYSPGVAAPCRDIAEDENAAYEYTAKGNLVGVVSNGSAVLGLGDIGAQASKPVMEGKGVLFKRFADIDVFDVEFDHDDPQAFVESVAAMEPTFGGINLEDIRAPECFEIEESLRERMDIPVFHDDQHGTAIISGAALLNAADIADKELSSLNVTFSGAGAAATATARFYVSLGIPHENITLCDIDGVLSESRAEAGELDEYAEPFARGVDDGDLEDAMEGADVLVGLSVGGIVSQETVRSMADDPIIFAMANPEPEIAYEDAKEARDDTVIMATGRSDYPNQVNNVLGFPFIFRGALDVRATEINEEMKRAAAEALANLARQDVPDAVVKAYGDGPLQFGPDYLIPKPLDQRVLYEVTPAVAEAAMKSGAARRERDLDDYREELEARLGKSREMMRVVLNKAASNPKRVVLAEGEDEKMIRAASQLVEEGIAEPILVGRTKEILRTAEDLGLDFDPTIADPESGEWNHYVDHLYERRQRKGLTRTEAAELVRGDSNYFASVMVEVGDADAMLTGLTHHYPSALRPPLQIIGTADDADYAAGVYMLTFRNRVIFCADATVNLDPDENVLAEVTKHTAELARRFNVEPRAALLSYSDFGSVTNEGTRKPRNAVEQLHADPDVDFPVDGEMQADTALVEEMLTDTYDFAELDDPANVLVFPNLEAGNIGYKLLQRLGGAEAIGPMLVGMDKPVHVLQRGDEVKDIVNLAGVAVVDAQSE
notes: full length with C-terminal PTA domain, Ni-NTA purified, homologous expression in H. volcanii; 530 kDa, subunit 81 kDa
Km (purified protein [1]): 150 µM
Km (purified protein [2]): 100 µM

B2: PPS (Haloferax volcanii DS2) (protein)
chain: MAVVWLDDVRADDLDLVGGKGASLGELTGAGLPVPPGFVVTASTYRAFIEDAGIDDELFAAVEVDHEDSEALQAAHETAHDLIMETPMPDDVREEILDAYRSVGEGDAFVAVRSSATAEDLPDASFAGQQETFLNVTEEDLLDRVKECWASLFSERAIYYRNRKGFPHDKVDIAVVVQQMVDAEKSGVMFTRHPSTGKKEIIIEAAWGLGEAVVSGTVSPDNYVVSRETGEVETATIADKKTMCVRDEESGETVMRDVPNGRRHERVLTDDEVSRLLELGELVEDHYEKPQDVEWAVYDGEVYMLQSRPITTIAEGDDGEETESEGDSSGSSRATATGDDVLIRGLGASPGIASGRARIVTKLDHLDQVAEGDIIVTEMTMPDMVPAMKRAAGIVTDEGGMTSHAAIVSRELGVPAVVGTGDGTKTLEDGEVVTIDGDKGTVREGEEPEEKQRQPVEEARPKTPVKPMTATEVKVNVSIPEAAERAAATGADGVGLLRIEHMVLTLGKTPGRFIEQNGERAYVDEIVSGVREAAEEFYPRPVRVRTLDAPTDEFRQLEGGENEPREHNPMLGYRGIRRGLDNPSVFRLELQAFRRLFDMGYDNLEVMFPLVNDAEDVLRAKEHMREAGIDPEKREWGVMIETPAAALCIEELADAGIDFASFGTNDLTQYTLAVDRNNEHVADIYDELHPAVLKLIGDTIETCREVGVKTSICGQAGSKPKMVQFLVDKGVSSISANIDAVRDVQHEVKRVEQRLLLDSVR
notes: full length, Ni-NTA purified, homologous expression in H. volcanii
Km [3]: 270 µM
Km [4]: 360 µM

B3: ACS7 (Haloferax volcanii DS2) (protein)
chain: MAQGDAELEARLAEQDEFEPTEEFVAQANVSDAGIYDEFEENWPDCWERAADLLDWDADYDEVLDDSNPPFYEWFTGGELNACYNCVDRHVENGDKNRVAIKWEGEHGETRTYTYQDLYREVNEFAAALRDLGVEEDDVVTLYMPMVPELPIAMLACARIGAPHNVVFAGFSAEALATRMNAADSRFLVTCDGYYRRGDPLDHLDKTNEGLDSVDHGVDATVVVDRLGDDGFDHDLKGNQHDWDDLLEAQSGERVAPVERDAEDMLFLMYTSGTTGQPKGVKHTTGGYLSYATWTSHAVLDIETEDTYWCSADIGWITGHSYIVYGPLALGSTTVMYEGTPDFPNRDRMWELVEKYAVDIFYTAPTAIRAFMKWGSKYPESRDLSSLRLLGTVGEPINPRAWKWYYEHIGNENCPVVDTWWQTETGGMMITTLPGVKNMKPGSAGPPLPGIDAQIVDTDGDEVEPGRAGYLTVNKPWPGMLRTLYDNDERYISEYWAEYSDTDSDDPDDWVYFPEDGAKVDEDGYITVLGRVDDVINVSGHRLGTMEIESAIVGVEGVAEAAVVGGNHEVKGEAVYAYVITEDGYEEGEDLRARIVEGVEDAIGPIARPEQVVFTPELPKTRSGKIMRRLLEDVANGAELGNTSTLRNPEIVGEIEAKVRAQSD
notes: full length, Ni-NTA purified (pTA963), homologous expression in H. volcanii H1209
Km (purified protein [5]): 840 µM
Vmax (purified protein [5]): 26.1 µmol/min/mg
Km (purified protein [6]): 150 µM
Vmax (purified protein [6]): 6.2 µmol/min/mg
Km (purified protein [7]): 590 µM
Km (purified protein [8]): 230 µM
Km (purified protein [9]): 90 µM
